Substitutions are numbered along the chain they refer to. One block for each binder: values may come before it.
How the values were obtained:
[1] = molecular target: T1, huZIP12-ECD-GST (human, UniProt Q504Y0 24-202); assay: SPR single cycle kinetics (Biacore): mAb captured on protein A, huZIP12-ECD-GST injected at 3.12-800 nM
T1 construct: also called hZIP12-ECD-GST; human ZIP12-ECD-GST; not shown: glutathione S-transferase (GST) tag
Procedure: (§1) Single Cycle Kinetics (SCK) involves first capturing the mAb onto the protein A sensor surface and then sequentially injecting a series of concentrations of huZIP12-ECD-GST over the surface starting at the lowest concentration and ending with the highest concentration. The final concentration is followed by a dissociation phase where buffer only is passed across the surface followed by regeneration, where the remaining bound huZIP12-ECD-GST is removed from the surface by injection of a 10 mM Glycine pH 1.5 and 50 mM NaOH solution. The SCK is repeated for each monoclonal antibody providing duplicate data and the kinetics of each interaction is evaluated by the Biacore software.
(§2) Referring to FIG. 6, there are shown the kinetic parameters obtained for all antibody variants when screened with the 3.12 nM to 800 nM huZIP12-ECD-GST. […] Affinity.

[2] = molecular target: T1, huZIP12-ECD-GST; assay: SPR single cycle kinetics (Biacore): mAb captured on protein A, huZIP12-ECD-GST injected at 2.34-600 nM, extended dissociation
Procedure: as §1
A selection of the higher affinity antibody variants were re-tested at a lower concentration series with an extended dissociation time with the objective of obtaining a better assessment of the binding kinetics. Referring now to FIG. 7, there are shown the data for the monoclonal antibodies that were re-tested to optimise the binding kinetic data. Once again, three antibody variants, H3_W99H_L1, H3_W99HL2 and H3_W99H_VL-par, all appear to have a higher affinity than the parent antibody. The on-rate (ka), off-rate (kd) and overall affinity measurement (KD) are all improved compared to the 51B12 VH_VL_par parent antibody.

[3] = molecular target: T1, huZIP12-ECD-GST; assay: SPR single cycle kinetics, mAb captured on protein A, 3.12-800 nM huZIP12-ECD-GST
Procedure: as §1, §2

T1 sequence (Q504Y0 24-202): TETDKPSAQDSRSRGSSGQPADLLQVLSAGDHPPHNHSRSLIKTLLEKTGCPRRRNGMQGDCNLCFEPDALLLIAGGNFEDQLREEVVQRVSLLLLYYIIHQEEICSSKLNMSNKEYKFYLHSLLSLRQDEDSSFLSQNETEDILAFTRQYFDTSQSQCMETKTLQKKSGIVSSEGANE

Kd [1]: 0.963 nM | koff [1]: 2.83e-05 s⁻¹ | kon [1]: 29300 M⁻¹ s⁻¹
B1: 51B12_VH_L1 (antibody, V domains shown)
VH: QVQLVESGGGVVQPGRSLRLSCAASGFTFSDYGMHWVRQAPGKGLEWVAYISSGGTTIYYADTVKGRFTISRDNSKNTLYLQMNSLRAEDTAVYYCARWTNLYAMDYWGQGTTVTVSS
VL: DIVLTQSPDSLAVSLGERATINCRASKSVSTQGYSYMHWYQQKPGQPPKFLIYLASNLESGVPDRFSGSGSGTDFTLTISSLQAEDVAVYYCQHSREVPYTFGGGTKVEIKR
notes: Fc null human IgG1 / human kappa

Kd [1]: 1.63 nM | koff [1]: 4.03e-05 s⁻¹ | kon [1]: 24700 M⁻¹ s⁻¹
B2: H3_M105P_VL-par (antibody, V domains shown)
VH: B1 VH with M105P
VL: B1 VL with Q32S
notes: as for B1

Kd [2]: 0.604 nM | koff [2]: 2.25e-05 s⁻¹ | kon [2]: 37200 M⁻¹ s⁻¹ | Kd [1]: 0.957 nM | koff [1]: 3.7e-05 s⁻¹ | kon [1]: 38600 M⁻¹ s⁻¹
B3: H2_Y60K_L1 (antibody, V domains shown)
VH: B1 VH with Y60K
VL: B1 VL
notes: as for B1

Kd [2]: 0.829 nM | koff [2]: 3.26e-05 s⁻¹ | kon [2]: 39400 M⁻¹ s⁻¹ | Kd [1]: 1.09 nM | koff [1]: 4.01e-05 s⁻¹ | kon [1]: 36700 M⁻¹ s⁻¹
B4: H2_Y60K_VL-par (antibody, V domains shown)
VH: B1 VH with Y60K
VL: B1 VL with Q32S
notes: as for B1

Kd [2]: 0.971 nM | koff [2]: 4.18e-05 s⁻¹ | kon [2]: 43100 M⁻¹ s⁻¹ | Kd [1]: 0.743 nM | koff [1]: 3.3e-05 s⁻¹ | kon [1]: 44400 M⁻¹ s⁻¹
B5: H2_T57H_L1 (antibody, V domains shown)
VH: B1 VH with T57H
VL: B1 VL
notes: as for B1

Kd [1]: 1.15 nM | koff [1]: 3.06e-05 s⁻¹ | kon [1]: 26700 M⁻¹ s⁻¹
B6: H2_T63Y_L2 (antibody, V domains shown)
VH: B1 VH with T63Y
VL: B1 VL with Q32S, L58K
notes: as for B1

Kd [1]: 1.13 nM | koff [1]: 2.62e-05 s⁻¹ | kon [1]: 23200 M⁻¹ s⁻¹
B7: H2_K65P_L2 (antibody, V domains shown)
VH: B1 VH with K65P
VL: B1 VL with Q32S, L58K
notes: as for B1

B8: H3_W99H_VL-par (antibody, V domains shown)
VH: B1 VH with W99H
VL: B1 VL with Q32S
notes: as for B1
Kd [2]: 0.322 nM | koff [2]: 3.29e-05 s⁻¹ | kon [2]: 102000 M⁻¹ s⁻¹ | Kd [3]: ~0.5 nM | Kd [1]: 0.481 nM | koff [1]: 4.67e-05 s⁻¹ | kon [1]: 97100 M⁻¹ s⁻¹

Kd [2]: 0.591 nM | koff [2]: 1.51e-05 s⁻¹ | kon [2]: 25600 M⁻¹ s⁻¹ | Kd [1]: 1.29 nM | koff [1]: 3.38e-05 s⁻¹ | kon [1]: 26200 M⁻¹ s⁻¹
B9: H2_T56H_VL-par (antibody, V domains shown)
VH: B1 VH with T56H
VL: B1 VL with Q32S
notes: as for B1

Kd [1]: 1.55 nM | koff [1]: 4.35e-05 s⁻¹ | kon [1]: 28100 M⁻¹ s⁻¹
B10: H3_M105P_L1 (antibody, V domains shown)
VH: B1 VH with M105P
VL: B1 VL
notes: as for B1

Kd [1]: 1.07 nM | koff [1]: 3.08e-05 s⁻¹ | kon [1]: 28800 M⁻¹ s⁻¹
B11: H2_K65P_L1 (antibody, V domains shown)
VH: B1 VH with K65P
VL: B1 VL
notes: as for B1

Kd [2]: 1.2 nM | koff [2]: 3.59e-05 s⁻¹ | kon [2]: 30000 M⁻¹ s⁻¹ | Kd [1]: 1.17 nM | koff [1]: 3.42e-05 s⁻¹ | kon [1]: 29100 M⁻¹ s⁻¹
B12: H2_G66Q_L2 (antibody, V domains shown)
VH: B1 VH with G66Q
VL: B1 VL with Q32S, L58K
notes: as for B1

B13: H2_Y60K_L2 (antibody, V domains shown)
VH: B1 VH with Y60K
VL: B1 VL with Q32S, L58K
notes: as for B1
Kd [1]: 1.11 nM | koff [1]: 4.04e-05 s⁻¹ | kon [1]: 36500 M⁻¹ s⁻¹

B14: H3_M105P_L2 (antibody, V domains shown)
VH: B1 VH with M105P
VL: B1 VL with Q32S, L58K
notes: as for B1
Kd [1]: 1.93 nM | koff [1]: 4.14e-05 s⁻¹ | kon [1]: 21500 M⁻¹ s⁻¹

Kd [1]: 1.08 nM | koff [1]: 2.92e-05 s⁻¹ | kon [1]: 27000 M⁻¹ s⁻¹
B15: H2_K65P_VL-par (antibody, V domains shown)
VH: B1 VH with K65P
VL: B1 VL with Q32S
notes: as for B1

Kd [1]: 0.968 nM | koff [1]: 3.34e-05 s⁻¹ | kon [1]: 34600 M⁻¹ s⁻¹
B16: H2_G66Q_L1 (antibody, V domains shown)
VH: B1 VH with G66Q
VL: B1 VL
notes: as for B1

Kd [2]: 1.34 nM | koff [2]: 3.68e-05 s⁻¹ | kon [2]: 27500 M⁻¹ s⁻¹ | Kd [1]: 1.07 nM | koff [1]: 3.16e-05 s⁻¹ | kon [1]: 29600 M⁻¹ s⁻¹
B17: H2_T63Y_L1 (antibody, V domains shown)
VH: B1 VH with T63Y
VL: B1 VL
notes: as for B1

B18: H2_T63Y_VL-par (antibody, V domains shown)
VH: B1 VH with T63Y
VL: B1 VL with Q32S
notes: as for B1
Kd [2]: 0.868 nM | koff [2]: 2.51e-05 s⁻¹ | kon [2]: 28900 M⁻¹ s⁻¹ | Kd [1]: 1.03 nM | koff [1]: 3.04e-05 s⁻¹ | kon [1]: 29600 M⁻¹ s⁻¹

Kd [1]: 0.98 nM | koff [1]: 3.78e-05 s⁻¹ | kon [1]: 38600 M⁻¹ s⁻¹
B19: H2_T57H_L2 (antibody, V domains shown)
VH: B1 VH with T57H
VL: B1 VL with Q32S, L58K
notes: as for B1

Kd [2]: 0.339 nM | koff [2]: 3.16e-05 s⁻¹ | kon [2]: 93100 M⁻¹ s⁻¹ | Kd [3]: ~0.5 nM | Kd [1]: 0.472 nM | koff [1]: 3.98e-05 s⁻¹ | kon [1]: 84300 M⁻¹ s⁻¹
B20: H3_W99H_L2 (antibody, V domains shown)
VH: B1 VH with W99H
VL: B1 VL with Q32S, L58K
notes: as for B1

Kd [2]: 0.83 nM | koff [2]: 2.78e-05 s⁻¹ | kon [2]: 33600 M⁻¹ s⁻¹ | Kd [1]: 1.08 nM | koff [1]: 3.72e-05 s⁻¹ | kon [1]: 34400 M⁻¹ s⁻¹
B21: H2_G66Q_VL-par (antibody, V domains shown)
VH: B1 VH with G66Q
VL: B1 VL with Q32S
notes: as for B1

Kd [1]: 1.61 nM | koff [1]: 3.74e-05 s⁻¹ | kon [1]: 23200 M⁻¹ s⁻¹
B22: H2_T56H_L2 (antibody, V domains shown)
VH: B1 VH with T56H
VL: B1 VL with Q32S, L58K
notes: as for B1

Kd [2]: 0.792 nM | koff [2]: 3.3e-05 s⁻¹ | kon [2]: 41600 M⁻¹ s⁻¹ | Kd [1]: 0.791 nM | koff [1]: 3.47e-05 s⁻¹ | kon [1]: 43900 M⁻¹ s⁻¹
B23: H2_T57H_VL-par (antibody, V domains shown)
VH: B1 VH with T57H
VL: B1 VL with Q32S
notes: as for B1

Kd [1]: 1.12 nM | koff [1]: 2.86e-05 s⁻¹ | kon [1]: 25600 M⁻¹ s⁻¹
B24: 51B12_VH_L2 (antibody, V domains shown)
VH: B1 VH
VL: B1 VL with Q32S, L58K
notes: as for B1

Kd [1]: 1.3 nM | koff [1]: 3.45e-05 s⁻¹ | kon [1]: 26400 M⁻¹ s⁻¹
B25: H2_T56H_L1 (antibody, V domains shown)
VH: B1 VH with T56H
VL: B1 VL
notes: as for B1

From patent US20260109761A1 (IP2IPO INNOVATIONS, published 2026)
